According to US20100169995A1 (RESEARCH FOUNDATION OF STATE UNIVERSITY OF NEW YORK, published 2010):

B1: E-cadherin (mouse, endogenous, liver lysate) (other, UniProt P09803 157-884, looked up)
chain: DWVIPPISCPENEKGEFPKNLVQIKSNRDKETKVFYSITGQGADKPPVGVFIIERETGWLKVTQPLDREAIAKYILYSHAVSSNGEAVEDPMEIVITVTDQNDNRPEFTQEVFEGSVAEGAVPGTSVMKVSATDADDDVNTYNAAIAYTIVSQDPELPHKNMFTVNRDTGVISVLTSGLDRESYPTYTLVVQAADLQGEGLSTTAKAVITVKDINDNAPVFNPSTYQGQVPENEVNARIATLKVTDDDAPNTPAWKAVYTVVNDPDQQFVVVTDPTTNDGILKTAKGLDFEAKQQYILHVRVENEEPFEGSLVPSTATVTVDVVDVNEAPIFMPAERRVEVPEDFGVGQEITSYTAREPDTFMDQKITYRIWRDTANWLEINPETGAIFTRAEMDREDAEHVKNSTYVALIIATDDGSPIATGTGTLLLVLLDVNDNAPIPEPRNMQFCQRNPQPHIITILDPDLPPNTSPFTAELTHGASVNWTIEYNDAAQESLILQPRKDLEIGEYKIHLKLADNQNKDQVTTLDVHVCDCEGTVNNCMKAGIVAAGLQVPAILGILGGILALLILILLLLLFLRRRTVVKEPLLPPDDDTRDNVYYYDEEGGGEEDQDFDLSQLHRGLDARPEVTRNDVAPTLMSVPQYRPRPANPDEIGNFIDENLKAADSDPTAPPYDSLLVFDYEGSGSEAASLSSLNSSESDQDQDYDYLNEWGNRFKKLADMYGGGEDD
B2: IQGAP2 (mouse, endogenous, liver lysate) (other, UniProt Q3UQ44 1-1575, looked up)
chain: MPHEELPSLQRPRYGSIVDDERLSAEEMDERRRQNIAYEYLCHLEEAKRWMEVCLVEELPPTTELEEGLRNGVYLAKLAKFFAPKMVSEKKIYDVEQTRYKKSGLHFRHTDNTVQWLRAMEAIGLPKIFYPETTDVYDRKNIPRMIYCIHALSLYLFKLGIAPQIQDLLGKVDFTEEEISNMRKELEKYGIQMPAFSKIGGILANELSVDEAALHAAVIAINEAIEKGVAKQTIITLRNPNAVLTCVDDSLSQEYQKELWEAKKKKEESAKLKNSCISEEERDAYEELLTQAEIQSNISTVNRMAAVDHINAVLQEGDPENTLLALKKPEAQLPAVYPFAAVMYQNELFNLQKQNTSNYLAHEELLIAVEMLSAVALLNQALESSDLVAVQNQLRSPTIGFNNLDEAHVDRYADALLSVKQEALSQGQDTLSWNEIQNCIDMINNQIQEENDRMVVLGYINEAIDAGNPLKTLDTLLLPTANIRDVDPDCAQHYQDVLFYTKSQKLGDPKNVSKVLWLDEIQQAINEANVDENRAKQWVTLVVDVNECLDRKQSDHILTALKSSPSNIHNILPECANKYYDTLVKAKESKTDNESSEGSWVTLNVQEKYNYYYNTDSKEGSWVPPELCLSKESWLTGEEIEDIVEEVTSDYIREKLWSASEDLLVRFEATTLGPALREEFEARKAFLYEQTESVVKIQAFWKGFKQRQEYLHRQQVFAGNVDSVVKIQSWFRMVTARKSYLSRLRYFEDHKNEIVKIQSLLRASKARDDYKALVGSENPPLTVIRKFVYLLDQSDLDFQEELEVARLREEVVTKIRANQQLEKDLNLMDIKIGLLVKNRITLEDVISHRKKLNKKKGGEIEILNNTDNKGIKSLSKERRKTLETYQQLFYLLQTKPSYLAKLIFQMPQNKSTKFMDTVIFTLYNYASNQREEYLLLKLFKTALEEEIKSKVDQVQDIVTGNPTVIKMVVSFNRGARGQNTLRQLLAPVVKEIIEDKALVINTNPVEVYKAWVNQLETQTGEASKLPYDVTTEQALTYPEVKNKLEASIENLRKVTDKVLGSIISSLDLLPYGLRYIAKVLKNSIREKFPDATEEELLKIVGNLLYYRYMNPAIVAPDGFDIIDMTAGGQINSNQRRNLGSVAKVLQHAASNKLFEGENEHLSSMNNYLSETYQEFRKYFQEACDVPEPEEKFNMDKYTDLVTVSKPVIYISIEEIINTHLLLLEHQDAIATEKSDLLNELLESLGEVPTVESFLGEGAVDPNDPNKENTLNQLSKTEISLSLTSKYDVKDGEAVDGRSLMIKTKKLIIDVTRNQPGSTLTEILETPATGQQELEHAKDMESRAVVDSRTPEEGKQSQAVIEDARLPLEQKKRKIQRNLRTLEQTGHVSSKNKYQDILNEIAKDIRNQRIHRKLRKAELSKLQQTLNALNKKAAFYEDQINYYDTYIKTCVDNLKRKNSRRSIKLDGKAEPKGTKRVKPVRYTAAKLHDKGVLLGIDDLQTNQFKNVMFDIIATEDMGIFDVRSKFLGVEMEKVQLNIQDLLQMQYEGVAVMKMFDKVKVNVNLLIYLLNKKFYGK
B3: human IQGAP2 (cDNA, transiently expressed in COS1 cells) (other, UniProt Q13576 1-1575, looked up)
chain: MPHEELPSLQRPRYGSIVDDERLSAEEMDERRRQNIAYEYLCHLEEAKRWMEVCLVEELPPTTELEEGLRNGVYLAKLAKFFAPKMVSEKKIYDVEQTRYKKSGLHFRHTDNTVQWLRAMESIGLPKIFYPETTDVYDRKNIPRMIYCIHALSLYLFKLGIAPQIQDLLGKVDFTEEEISNMRKELEKYGIQMPSFSKIGGILANELSVDEAALHAAVIAINEAVEKGIAEQTVVTLRNPNAVLTLVDDNLAPEYQKELWDAKKKKEENARLKNSCISEEERDAYEELLTQAEIQGNINKVNRQAAVDHINAVIPEGDPENTLLALKKPEAQLPAVYPFAAAMYQNELFNLQKQNTMNYLAHEELLIAVEMLSAVALLNQALESNDLVSVQNQLRSPAIGLNNLDKAYVERYANTLLSVKLEVLSQGQDNLSWNEIQNCIDMVNAQIQEENDRVVAVGYINEAIDEGNPLRTLETLLLPTANISDVDPAHAQHYQDVLYHAKSQKLGDSESVSKVLWLDEIQQAVDDANVDKDRAKQWVTLVVDVNQCLEGKKSSDILSVLKSSTSNANDIIPECADKYYDALVKAKELKSERVSSDGSWLKLNLHKKYDYYYNTDSKESSWVTPESCLYKESWLTGKEIEDIIEEVTVGYIRENIWSASEELLLRFQATSSGPILREEFEARKSFLHEQEENVVKIQAFWKGYKQRKEYMHRRQTFIDNTDSIVKIQSWFRMATARKSYLSRLQYFRDHNNEIVKIQSLLRANKARDDYKTLVGSENPPLTVIRKFVYLLDQSDLDFQEELEVARLREEVVTKIRANQQLEKDLNLMDIKIGLLVKNRITLEDVISHSKKLNKKKGGEMEILNNTDNQGIKSLSKERRKTLETYQQLFYLLQTNPLYLAKLIFQMPQNKSTKFMDTVIFTLYNYASNQREEYLLLKLFKTALEEEIKSKVDQVQDIVTGNPTVIKMVVSFNRGARGQNTLRQLLAPVVKEIIDDKSLIINTNPVEVYKAWVNQLETQTGEASKLPYDVTTEQALTYPEVKNKLEASIENLRRVTDKVLNSIISSLDLLPYGLRYIAKVLKNSIHEKFPDATEDELLKIVGNLLYYRYMNPAIVAPDGFDIIDMTAGGQINSDQRRNLGSVAKVLQHAASNKLFEGENEHLSSMNNYLSETYQEFRKYFKEACNVPEPEEKFNMDKYTDLVTVSKPVIYISIEEIISTHSLLLEHQDAIAPEKNDLLSELLGSLGEVPTVESFLGEGAVDPNDPNKANTLSQLSKTEISLVLTSKYDIEDGEAIDSRSLMIKTKKLIIDVIRNQPGNTLTEILETPATAQQEVDHATDMVSRAMIDSRTPEEMKHSQSMIEDAQLPLEQKKRKIQRNLRTLEQTGHVSSENKYQDILNEIAKDIRNQRIYRKLRKAELAKLQQTLNALNKKAAFYEEQINYYDTYIKTCLDNLKRKNTRRSIKLDGKGEPKGAKRAKPVKYTAAKLHEKGVLLDIDDLQTNQFKNVTFDIIATEDVGIFDVRSKFLGVEMEKVQLNIQDLLQMQYEGVAVMKMFDKVKVNVNLLIYLLNKKFYGK

Key:
[1] = target: B2; experiment: co-immunoprecipitation from mouse whole-liver lysates, immunoblot detection
Method: (§1) To further probe the relationships between IQGAP1, IQGAP2, β-catenin, and E-cadherin, a series of immunoprecipitation experiments were conducted using whole-liver lysates from Iqgap1^{-/-}, Iqgap2^{-/-}, and wildtype mice. […] In contrast, there was no evidence for specific interaction between E-cadherin and IQGAP2 in either E-cadherin- or IQGAP2-specific immunoprecipitations. […] Using normal hepatocytes, however, neither IQGAP1- nor IQGAP2-specific pull-down assays coprecipitated the corresponding homologous protein. Transient transfections of […] (which endogenously express IQGAP1) were subsequently used as an in vitro model system to specifically address the existence of putative IQGAP1-IQGAP2 heterodimers. As evident in FIG. 15B, IQGAP1 or IQGAP2 were not pulled down by reciprocal immunoprecipitations. Thus, while IQGAP1 and IQGAP2 are normally found as components of a broader quarternary scaffolding complex in hepatocytes, there appears to be no evidence that their presence within this scaffold occurs via direct (heterodimeric) interactions.
(§2) Immunoprecipitation experiments were completed using freshly isolated murine livers essentially as described previously (Schmidt, V. A., et al. 2003. Blood 101:3021-3028). In brief, intact livers were homogenized in 25 mM HEPES-0.15 M NaCl buffer, pH 7.45, supplemented with 0.1% Triton X-100 and standard protease inhibitors. […]

[2] = target: IQGAP1 (mouse, endogenous, liver lysate) (mouse, UniProt Q9JKF1 2-1657); experiment: reciprocal co-immunoprecipitation from normal mouse hepatocyte/liver lysates, immunoblot detection
Method: as §1, §2

[3] = target: human IQGAP1 (full-length cDNA, transiently expressed in COS1 cells) (human, UniProt P46940 2-1657); experiment: reciprocal co-immunoprecipitation from lysates of transiently transfected COS1 cells, immunoblot detection
Method: as §1, §2

human IQGAP1 (full-length cDNA, transiently expressed in COS1 cells), sequence (P46940 2-1657 limits assumed): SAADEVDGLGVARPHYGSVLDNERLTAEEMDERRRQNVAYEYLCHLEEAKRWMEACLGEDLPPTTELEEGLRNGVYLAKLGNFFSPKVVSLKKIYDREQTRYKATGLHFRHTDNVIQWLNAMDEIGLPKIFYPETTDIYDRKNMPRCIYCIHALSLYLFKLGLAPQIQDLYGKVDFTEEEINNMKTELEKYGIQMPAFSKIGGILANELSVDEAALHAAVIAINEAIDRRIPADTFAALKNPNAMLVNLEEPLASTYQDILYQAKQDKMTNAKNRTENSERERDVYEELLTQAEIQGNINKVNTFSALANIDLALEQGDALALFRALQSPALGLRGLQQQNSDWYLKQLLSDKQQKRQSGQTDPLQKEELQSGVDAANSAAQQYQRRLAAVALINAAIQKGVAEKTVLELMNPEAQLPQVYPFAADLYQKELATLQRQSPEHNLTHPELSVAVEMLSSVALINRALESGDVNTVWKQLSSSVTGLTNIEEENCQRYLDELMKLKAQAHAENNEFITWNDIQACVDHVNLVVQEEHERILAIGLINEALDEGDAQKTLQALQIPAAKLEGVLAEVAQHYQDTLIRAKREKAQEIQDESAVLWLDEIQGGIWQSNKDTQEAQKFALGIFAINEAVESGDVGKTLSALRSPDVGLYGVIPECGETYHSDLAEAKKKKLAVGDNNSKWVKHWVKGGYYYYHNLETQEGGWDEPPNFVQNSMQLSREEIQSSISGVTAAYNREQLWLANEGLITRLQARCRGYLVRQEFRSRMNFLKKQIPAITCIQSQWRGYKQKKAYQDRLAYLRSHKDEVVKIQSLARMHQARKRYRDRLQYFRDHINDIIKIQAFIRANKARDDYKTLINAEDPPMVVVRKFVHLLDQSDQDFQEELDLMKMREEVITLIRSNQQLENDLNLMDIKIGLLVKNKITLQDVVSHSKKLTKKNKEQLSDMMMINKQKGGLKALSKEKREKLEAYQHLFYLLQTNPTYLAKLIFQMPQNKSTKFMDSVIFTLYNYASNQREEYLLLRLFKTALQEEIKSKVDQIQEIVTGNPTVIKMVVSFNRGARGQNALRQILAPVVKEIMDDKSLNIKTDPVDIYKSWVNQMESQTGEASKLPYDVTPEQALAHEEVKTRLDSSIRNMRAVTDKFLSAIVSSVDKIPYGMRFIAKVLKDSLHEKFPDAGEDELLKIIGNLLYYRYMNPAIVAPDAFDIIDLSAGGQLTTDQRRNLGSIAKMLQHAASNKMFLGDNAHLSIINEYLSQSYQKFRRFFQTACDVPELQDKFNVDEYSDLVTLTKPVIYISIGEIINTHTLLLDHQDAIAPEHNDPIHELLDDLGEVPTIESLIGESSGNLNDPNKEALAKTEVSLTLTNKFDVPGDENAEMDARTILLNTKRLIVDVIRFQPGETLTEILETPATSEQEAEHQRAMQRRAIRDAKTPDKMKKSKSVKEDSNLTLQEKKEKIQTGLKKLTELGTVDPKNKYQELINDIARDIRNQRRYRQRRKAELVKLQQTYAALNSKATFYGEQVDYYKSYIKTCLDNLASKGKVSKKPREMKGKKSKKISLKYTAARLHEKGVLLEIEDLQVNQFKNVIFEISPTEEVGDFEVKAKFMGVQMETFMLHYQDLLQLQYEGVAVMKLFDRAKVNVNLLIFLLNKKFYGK
IQGAP1 (mouse, endogenous, liver lysate), sequence (Q9JKF1 2-1657 limits assumed): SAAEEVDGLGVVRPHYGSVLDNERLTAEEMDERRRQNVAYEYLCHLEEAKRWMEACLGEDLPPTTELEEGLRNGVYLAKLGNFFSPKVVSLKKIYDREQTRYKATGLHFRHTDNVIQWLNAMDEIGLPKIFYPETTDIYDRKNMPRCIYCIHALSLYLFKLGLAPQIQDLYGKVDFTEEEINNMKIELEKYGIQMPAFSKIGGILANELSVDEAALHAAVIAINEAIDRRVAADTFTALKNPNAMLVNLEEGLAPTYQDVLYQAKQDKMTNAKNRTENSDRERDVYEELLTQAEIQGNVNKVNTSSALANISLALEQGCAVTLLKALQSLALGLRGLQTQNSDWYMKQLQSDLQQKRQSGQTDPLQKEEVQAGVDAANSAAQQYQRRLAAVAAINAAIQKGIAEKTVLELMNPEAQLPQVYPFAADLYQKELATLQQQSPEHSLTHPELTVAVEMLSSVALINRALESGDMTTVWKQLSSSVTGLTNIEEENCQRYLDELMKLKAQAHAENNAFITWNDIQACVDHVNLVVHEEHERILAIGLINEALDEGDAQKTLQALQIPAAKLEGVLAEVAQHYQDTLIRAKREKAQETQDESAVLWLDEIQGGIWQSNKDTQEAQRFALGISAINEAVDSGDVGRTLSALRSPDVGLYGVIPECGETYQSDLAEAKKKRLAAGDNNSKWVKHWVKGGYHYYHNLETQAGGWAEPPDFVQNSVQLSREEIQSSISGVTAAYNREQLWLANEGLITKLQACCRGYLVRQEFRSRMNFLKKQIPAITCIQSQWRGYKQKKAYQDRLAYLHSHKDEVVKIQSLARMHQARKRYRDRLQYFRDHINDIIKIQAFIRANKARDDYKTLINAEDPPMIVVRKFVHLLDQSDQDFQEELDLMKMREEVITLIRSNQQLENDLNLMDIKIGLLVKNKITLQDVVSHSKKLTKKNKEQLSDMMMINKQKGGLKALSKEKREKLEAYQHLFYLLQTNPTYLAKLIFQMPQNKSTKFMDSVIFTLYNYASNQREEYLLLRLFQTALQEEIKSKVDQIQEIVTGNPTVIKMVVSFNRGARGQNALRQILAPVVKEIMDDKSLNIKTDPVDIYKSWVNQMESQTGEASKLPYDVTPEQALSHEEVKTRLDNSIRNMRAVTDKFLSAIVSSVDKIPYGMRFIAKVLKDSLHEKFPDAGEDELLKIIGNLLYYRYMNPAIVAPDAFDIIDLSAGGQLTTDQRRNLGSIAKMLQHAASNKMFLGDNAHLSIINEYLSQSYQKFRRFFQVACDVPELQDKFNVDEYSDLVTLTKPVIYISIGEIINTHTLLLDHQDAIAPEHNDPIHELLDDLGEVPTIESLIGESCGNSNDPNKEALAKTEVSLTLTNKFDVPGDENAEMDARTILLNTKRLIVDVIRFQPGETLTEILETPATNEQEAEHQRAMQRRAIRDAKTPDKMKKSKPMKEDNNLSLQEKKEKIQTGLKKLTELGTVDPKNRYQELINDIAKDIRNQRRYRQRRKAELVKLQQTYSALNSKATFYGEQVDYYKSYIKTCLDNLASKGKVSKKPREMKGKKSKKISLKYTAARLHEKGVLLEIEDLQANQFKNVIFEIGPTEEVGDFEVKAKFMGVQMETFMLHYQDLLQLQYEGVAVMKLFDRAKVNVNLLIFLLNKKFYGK

B1
binding result [1]: no binding

B2
binding result [2]: no binding

B3
binding result [3]: no binding
